From paper PMC5627596

How the values were obtained:
[1] = target: heterodimeric Fcab Janus448 (one VEGF-binding 448 chain, one Fc-wt chain) (human); assay: ITC; 200 µM VEGF titrated into 40 µM Janus448 or JanusCT6 in the cell; PBS (pH 7.4), 25°C; one-set-of-sites model
[2] = target: heterodimeric Fcab JanusCT6 (one VEGF-binding CT6 chain, one Fc-wt chain) (human); assay: as above

Q: Which results are given for “vascular endothelial growth factor (VEGF-A), truncated version, residues 14-108 (domain or fragment)”?
A: Kd [1]: 26 nM; dH [1]: -25 kcal/mol; stoichiometry N [1]: 0.5; Kd [2]: 4 nM; dH [2]: -34 kcal/mol; stoichiometry N [2]: 0.5
